Data taken from patent publication US20230135471A1, “UBIQUITIN VARIANTS WITH IMPROVED AFFINITY FOR 53BP1” (Integrated DNA Technologies, Inc., priority 2021, published 2023).

Columns and labels:
[1] = system: HDR at a Cas9 cut site in CLTA in K562 cells; test: HDR insertion of 729 bp GFP coding sequence at CLTA, measured by ONT sequencing; assay type: cell-based; settings: dsDNA donor (large insert), Ubv 37.5 μM, IDT-E 1 μM for 24 hours
Experimental: FIG. 12A illustrates use of a ubiquitin variant with high affinity for 53BP1 provides an additional benefit to HDR over the use of a DNA-PK inhibitor alone. […] Ubiquitin variants were delivered alongside 2 μM Cas9 RNP at 37.5 μM final concentration. IDT-E was added to media post nucleofection for 24 hours at 1 μM final dose. Double stranded DNA donor with 200 bp homology arms was delivered at 1.5 μg per nucleofection.
(§1) We tested if our ubiquitin variants provided a further benefit over inhibition of common NHEJ pathway targets alone by using the DNA-PK inhibitor IDT enhancer (IDT-E) in combination with CM1 in the context of both large and small inserts (Table 7). […] Without limiting the claimed subject matter to a particular mode or mechanism of action, we hypothesize that our ubiquitin variants targeting 53BP1 will be a useful in facilitating increased HIDR when used in combination with other inhibitors of NHEJ pathway components.

[2] = system: HDR at a Cas9 cut site in MET in HEK293 cells; test: HDR (6 nt insert) at MET measured by EcoR1 cleavage; assay type: cell-based; settings: Alt-R HDR donor oligo (small insert), CM1 […], IDT-E 1 μM for 24 hours
Excerpt: as §1

[3] = system: HDR at HPRT1 in HEK293 cells that constitutively express HiFi Cas9 / Jurkat cells; test: HDR at HPRT1 by EcoR1 cleavage assay, Ubv delivered as expression plasmid; assay type: cell-based; settings: 154 ng plasmid encoding His-tagged Ubv, versus LbCas12a crRNA plasmid negative control
Experimental: Error bars indicate the standard deviation from two replicates.
In order to test if CM1 is effective at increasing HDR rates when delivered in other forms, plasmid or mRNA encoding CM1 was introduced into cells and the effects on HDR rates were analyzed. […] After 72 hours, genomic DNA was extracted using QuickExtract (Lucigen) and editing was analyzed by PCR amplification of the HPRT1 target site followed by EcoR1 restriction enzyme digestion. Digested product was run on a Fragment Analyzer (AATI).

[4] = biological target: 53BP1 (amino acids 1484-1603) fused to MBP (Homo sapiens, UniProt Q12888); test: Biolayer interferometry (BLI) of purified His-tagged Ubvs, 1:1 binding model global fit; settings: for Response: second experiment, longer association (360 seconds; i53 90 seconds)
Experimental: In order to assess the effect of mutations identified from the two-hybrid screen on the affinity of the Ubvs for 53BP1, Ubvs consisting of the i53 sequence with an N-terminal His tag and short flexible linker plus individual or combinations of screen-identified mutations were purified from E. coli (Table 3). Biolayer interferometry was used to measure the affinity of the purified proteins. Briefly, a purified Ubv was diluted in reaction buffer (1×PBS pH7.4, 0.1 mg/mL BSA, 0.001% Tween 20) to 2 ug/mL. Purified 53BP1 (amino acids 1484-1603) fused to MBP was diluted in reaction buffer to between 20 μM and 10 nM (Table 3, Table 4)). For each Ubv, 8 Ni-NTA sensor tips were hydrated and then loaded with the 2 ug/ml of a Ubv for 30 seconds. Sensor tips were then incubated in reaction buffer for 45 seconds to obtain a baseline. Tips were then moved into either empty buffer or seven different concentrations of purified 53BP1 and the association was measured. Tips were then moved back into reaction buffer and the dissociation was measured. Kon, Koff, and Kd were calculated using a 1:1 binding model using a global fit (Table 4).
A second experiment was performed using CM1 and CM7 using a longer association time (360 seconds) to allow binding to closer approach equilibrium. The BLI response vs 53BP1 fragment concentration was plotted in prism to calculate the Kd using a one site-specific binding nonlinear fit model. An i53 response was plotted on the same graph however the association time used (90 seconds) was shorter due to needing a shorter time to reach equilibrium because of the fast off rate of i53 (FIG. 5B, FIG. 5C, Table 4).

[5] = system: HDR at HPRT1 in HEK293 cells; test: HDR at HPRT1 by EcoR1 cleavage assay, tag-free versus His-tagged CM1 protein; assay type: cell-based; settings: HEK293, HPRT1, 50 μM to […] ubiquitin variant
Experimental: Data is shown for two biological replicates with lines connecting the means. The dashed line indicates the level of EcoR1 cleavage when no enhancer is used (n=3, standard deviation <2%).
A tag-free version of CM1 (CM1tf, SEQ ID NO:482) was compared with the His6-tagged version of CM1 (SEQ ID NO:241) for their ability to enhance HDR in HEK293 cells as has been described in previous examples. Briefly, 2 uM Cas9 RNP targeting a site in HPRT1 and 2 uM ssDNA donor containing 40 bp homology arms flanking a 6 bp EcoR1 cut site insert sequence were delivered into HEK293 cells with varying amounts of CM1tf (CM1tf, SEQ ID NO:482) or His-tagged CM1 (CM1; SEQ ID NO:241) using Lonza nucleofection. Genomic DNA was isolated after 48 hours, and editing was measured using an EcoR1 cleavage assay.

[6] = biological target: T1, fragment of 53BP1 (a.a. 1221-1718) (Homo sapiens, UniProt Q12888); test: Individual two-hybrid screen of amino acid changes, percent GFP (reporter) positive cells by flow cytometry; assay type: cell-based
T1 construct: a fragment of 53BP1 (a.a. 1221-1718); expressed in transfected cells; host or cells: E. coli DHM1
Excerpt: (§2) In order to identify mutations that improve the affinity of i53 for 53BP1, the bacterial adenylate cyclase two-hybrid system (BACTH system) was used to screen for interaction between the two proteins. This method makes use of a B. pertussis calmodulin-dependent adenylate cyclase toxin. The catalytic domain of the toxin can be separated into two fragments (T18 and T25) that are able to associate in the presence of calmodulin but have minimal activity in its absence. If bait and prey proteins fused to T18 and T25 interact, then the catalytic activity is restored and cAMP is produced. In E. coli, cAMP binds to catabolite activator protein (CAP) that acts as a transcriptional activator for several genes. By expressing these fusion proteins in an E. coli strain that lacks endogenous adenylate cyclase and naturally lacks calmodulin, cAMP regulated protein expression can be used as a readout of bait-prey interaction. We engineered the screen so that eGFP will be expressed under the control of a cAMP-regulated promoter. The coding sequence for a fragment of 53BP1 (a.a. 1221-1718) containing the i53 interacting regions and i53 were cloned into T18 and T25 adenylate cyclase expression plasmids such that fusion proteins of each would be expressed. If a Ubv interacts with 53BP1, the T18 and T25 fragments will be brought together, adenylate cyclase activity will be restored, cAMP will be produced, and some portion of the bacterial population will be GFP positive.
(§3) There was a high degree of correlation between the two experiments and between replicates (FIG. 2). From these screens, about 230 amino acid changes were identified for which the average enrichment was positive for at least one of the experiments (Table 1). […] To validate that the amino acid changes identified from the pooled screen are reproducible on an individual basis, 24 amino acid changes identified from this screen were introduced individually into the i53 fusion protein plasmid and tested by flow cytometry for their effect on the percent positive population relative to i53 (FIG. 3). There was a strong correlation between the enrichment measured from the pooled screen and the percent reporter positive cells when mutations were screened individually.

53BP1 foci = settings: introduced into cells; cited from earlier work
[7] = biological target: T1, fragment of 53BP1 (a.a. 1221-1718); test: BACTH two-hybrid pooled screen in E. coli, FACS sorting of GFP positive cells and NGS enrichment of i53 amino acid changes; assay type: cell-based
Excerpt: as §2
A plasmid library was made consisting of Ubv-adenylate cyclase fragment fusion protein plasmids that had on average a single codon within the i53 coding region exchanged for a random NNK codon. Plasmids were transformed into DHM1 cells that lack endogenous adenylate cyclase and contain the plasmid for expression of the 53BP1 fragment fused to one of the adenylate cyclase fragments. Expression of eGFP was used as a readout of bait-prey interaction using fluorescence activated cell sorting (FACS) to sort for GFP positive bacteria. Plasmid DNA was isolated from both the sorted GFP positive bacteria (Positive) and from the original pre-sort population (Input) and was sequenced using NGS. Counts were merged for mutations that result in the same amino acid change using Enrich2 [25]. Enrichment was calculated as enrichment=log 2((read count for an amino acid change in the positive population/read count for an amino acid change in the input)/(synonymous change read count in the positive population/synonymous change read count in the input)). […] For each experiment, DHM1 cells were transformed with the Ubv fusion protein plasmid library in two separate replicates using a gene pulser (Bio-Rad). The i53-adenylate cyclase fragment fusion protein (published i53 peptide, SEQ ID NO:2) plasmid was also introduced separately as a control to estimate selection pressure. Cells were then grown and sorted using FACS and GFP positive cells were collected. Two separate experiments were conducted on separate days using different levels of selection pressure resulting in a different percent GFP positive for the i53 population (i.e. for cells that express published i53 peptide (SEQ ID NO:2) fused to one of the adenylate cyclase fragments).
as §3

HDR = settings: plasmid delivery, adeno-associated virus mediated gene delivery, or delivery of mRNA; cited from earlier work

T1 sequence (Q12888 1221-1718): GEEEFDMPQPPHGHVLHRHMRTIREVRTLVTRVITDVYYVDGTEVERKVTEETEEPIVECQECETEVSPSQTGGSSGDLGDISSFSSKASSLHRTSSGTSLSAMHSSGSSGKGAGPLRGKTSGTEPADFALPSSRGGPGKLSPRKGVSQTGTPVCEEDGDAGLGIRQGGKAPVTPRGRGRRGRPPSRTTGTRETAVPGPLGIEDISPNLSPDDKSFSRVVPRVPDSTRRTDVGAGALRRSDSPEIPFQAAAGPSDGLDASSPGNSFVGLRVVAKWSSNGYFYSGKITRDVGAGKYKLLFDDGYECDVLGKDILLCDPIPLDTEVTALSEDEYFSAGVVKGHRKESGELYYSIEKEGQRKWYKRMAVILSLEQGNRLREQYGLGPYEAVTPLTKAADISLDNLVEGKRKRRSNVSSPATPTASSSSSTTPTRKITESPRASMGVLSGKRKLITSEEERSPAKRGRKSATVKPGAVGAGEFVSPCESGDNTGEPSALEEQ
Sequence of 53BP1 (amino acids 1484-1603) fused to MBP (Q12888 1484-1603, looked up): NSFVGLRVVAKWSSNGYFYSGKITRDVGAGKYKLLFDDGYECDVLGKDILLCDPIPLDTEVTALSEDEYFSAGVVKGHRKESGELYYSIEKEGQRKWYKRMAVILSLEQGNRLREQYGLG

Substance | Response ([4]; 53BP1 0.0102 μM) | Response ([4]; 53BP1 0.0511 μM) | Response ([4]; 53BP1 0.1022 μM) | Response ([4]; 53BP1 0.2045 μM) | Response ([4]; 53BP1 1.02 μM) | Response ([4]; 53BP1 5.11 μM) | Response ([4]; 53BP1 20.5 μM) | Percent GFP Positive Rep 1 ([6]; replicate 1, amino acid change in i53 fusion protein plasmid) | Percent GFP Positive Rep 2 ([6]; replicate 2) | Percent GFP Positive Rep 3 ([6]; replicate 3) | i53 percent positive ([7]; experiment one) | GFP positive population ([7]; high selection pressure experiment) | GFP positive population ([7]; low selection pressure experiment) | rate of HDR [1] | rate of HDR [2] | HDR rate [3] | ability to enhance HDR [5] | KD (M) ([4]; 1:1 binding model, global fit over all 53BP1 concentrations) | formation of ionizing radiation induced 53BP1 foci (53BP1 foci) | rates of HDR (HDR)
CM1tf: tag-free version of CM1 |  |  |  |  |  |  |  |  |  |  |  |  |  |  |  |  | equivalent to that of His-tagged CM1 |  |  | 
i53 DM: 53BP1 binding deficient i53 variant with P69L, L70V [reference compound] |  |  |  |  |  |  |  |  |  |  |  |  |  |  |  |  |  | Response was too low to get a good fit to the data |  | 
i53: published ubiquitin variant inhibitor of 53BP1 (Canny et al.); tested with N-terminal His tag and linker (SEQ ID NO:3) [reference compound] | 0.0176 | 0.0537 | 0.104 | 0.1877 | 0.6247 | 1.2658 | 1.954 | 9% | 7.6% | 11.8% | approximately 30% | ~3% | ~17% |  |  | increase in HDR rates |  |  | inhibited the formation ionizing radiation induced 53BP1 foci | improve the rates of HDR

The next lines start with results.

Response ([4]; 53BP1 0.0102 μM) | Response ([4]; 53BP1 0.0511 μM) | Response ([4]; 53BP1 0.1022 μM) | Response ([4]; 53BP1 0.2045 μM) | Response ([4]; 53BP1 1.02 μM) | Response ([4]; 53BP1 5.11 μM) | Response ([4]; 53BP1 20.5 μM) | Percent GFP Positive Rep 1 ([6]; replicate 1, amino acid change in i53 fusion protein plasmid) | Percent GFP Positive Rep 2 ([6]; replicate 2) | Percent GFP Positive Rep 3 ([6]; replicate 3) | i53 percent positive ([7]; experiment one) | GFP positive population ([7]; high selection pressure experiment) | GFP positive population ([7]; low selection pressure experiment) | Substance | rate of HDR [1] | rate of HDR [2] | HDR rate [3] | ability to enhance HDR [5] | KD (M) ([4]; 1:1 binding model, global fit over all 53BP1 concentrations) | formation of ionizing radiation induced 53BP1 foci (53BP1 foci) | rates of HDR (HDR)
0.4913 | 1.3298 | 1.6825 | 2.0092 | 2.5002 | 2.738 | 2.9739 |  |  |  |  |  |  | CM1: i53 with K6R, T7M, T12M, T14E, K33H, A46Q, S65P, L67K, H68M; N-terminal His tag | increase rates of HDR | increase rates of HDR | larger increase in HDR rate |  |  |  | 
0.099 | 0.3578 | 0.5715 | 0.8611 | 1.5108 | 2.0067 | 2.4923 |  |  |  |  |  |  | CM7: i53 with K6R, K33H, A46Q, S65P; N-terminal His tag |  |  |  |  |  |  | 
